Source: patent US20240425885

Experiments:
Experiment in all cases: cleavage_in_vitro
[1] = system: OMNI-110 (metagenomic, unknown); conditions: TXTL; PAM NNRTNCNN
[2] = system: OMNI-119 (metagenomic, unknown); conditions: TXTL; PAM NNACNNNN
[3] = system: T1, OMNI-120 (metagenomic, unknown); conditions: TXTL; PAM NRVACNNN
T1 sequence: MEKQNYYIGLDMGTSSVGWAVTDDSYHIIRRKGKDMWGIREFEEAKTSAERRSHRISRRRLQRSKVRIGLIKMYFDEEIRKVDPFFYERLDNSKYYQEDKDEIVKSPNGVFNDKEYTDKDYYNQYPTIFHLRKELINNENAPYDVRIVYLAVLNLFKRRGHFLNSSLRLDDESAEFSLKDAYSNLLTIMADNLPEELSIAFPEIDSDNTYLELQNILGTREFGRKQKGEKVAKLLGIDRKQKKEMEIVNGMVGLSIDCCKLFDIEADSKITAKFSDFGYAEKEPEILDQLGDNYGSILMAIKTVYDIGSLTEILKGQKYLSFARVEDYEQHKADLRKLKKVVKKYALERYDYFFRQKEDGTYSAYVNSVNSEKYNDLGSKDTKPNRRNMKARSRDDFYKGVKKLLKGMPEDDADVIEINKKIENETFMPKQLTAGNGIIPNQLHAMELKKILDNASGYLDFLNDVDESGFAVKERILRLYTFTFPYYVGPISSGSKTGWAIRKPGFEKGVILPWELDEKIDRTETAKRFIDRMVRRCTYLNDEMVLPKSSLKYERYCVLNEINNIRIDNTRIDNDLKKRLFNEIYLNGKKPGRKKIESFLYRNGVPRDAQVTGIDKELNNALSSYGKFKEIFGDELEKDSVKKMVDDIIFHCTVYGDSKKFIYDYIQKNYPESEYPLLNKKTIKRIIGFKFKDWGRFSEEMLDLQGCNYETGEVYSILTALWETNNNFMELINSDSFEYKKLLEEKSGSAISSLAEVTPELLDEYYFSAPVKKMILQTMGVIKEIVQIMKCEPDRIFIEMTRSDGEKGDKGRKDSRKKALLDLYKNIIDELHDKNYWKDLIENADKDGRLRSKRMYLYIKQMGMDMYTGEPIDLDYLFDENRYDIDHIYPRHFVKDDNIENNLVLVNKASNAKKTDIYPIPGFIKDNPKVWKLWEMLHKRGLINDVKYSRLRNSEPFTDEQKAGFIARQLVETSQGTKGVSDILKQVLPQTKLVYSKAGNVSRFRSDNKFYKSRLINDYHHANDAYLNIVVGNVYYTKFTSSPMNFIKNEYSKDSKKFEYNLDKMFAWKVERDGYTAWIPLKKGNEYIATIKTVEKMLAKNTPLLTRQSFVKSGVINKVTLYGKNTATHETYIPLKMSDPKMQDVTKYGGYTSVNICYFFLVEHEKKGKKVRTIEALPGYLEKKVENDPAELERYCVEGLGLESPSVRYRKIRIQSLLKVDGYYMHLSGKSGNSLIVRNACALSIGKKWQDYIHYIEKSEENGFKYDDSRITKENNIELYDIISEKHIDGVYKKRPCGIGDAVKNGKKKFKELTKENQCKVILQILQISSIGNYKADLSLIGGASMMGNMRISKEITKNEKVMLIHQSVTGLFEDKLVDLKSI

[4] = system: T2, OMNI-109 (metagenomic, unknown); conditions: TXTL; PAM NNAARCNN
T2 sequence: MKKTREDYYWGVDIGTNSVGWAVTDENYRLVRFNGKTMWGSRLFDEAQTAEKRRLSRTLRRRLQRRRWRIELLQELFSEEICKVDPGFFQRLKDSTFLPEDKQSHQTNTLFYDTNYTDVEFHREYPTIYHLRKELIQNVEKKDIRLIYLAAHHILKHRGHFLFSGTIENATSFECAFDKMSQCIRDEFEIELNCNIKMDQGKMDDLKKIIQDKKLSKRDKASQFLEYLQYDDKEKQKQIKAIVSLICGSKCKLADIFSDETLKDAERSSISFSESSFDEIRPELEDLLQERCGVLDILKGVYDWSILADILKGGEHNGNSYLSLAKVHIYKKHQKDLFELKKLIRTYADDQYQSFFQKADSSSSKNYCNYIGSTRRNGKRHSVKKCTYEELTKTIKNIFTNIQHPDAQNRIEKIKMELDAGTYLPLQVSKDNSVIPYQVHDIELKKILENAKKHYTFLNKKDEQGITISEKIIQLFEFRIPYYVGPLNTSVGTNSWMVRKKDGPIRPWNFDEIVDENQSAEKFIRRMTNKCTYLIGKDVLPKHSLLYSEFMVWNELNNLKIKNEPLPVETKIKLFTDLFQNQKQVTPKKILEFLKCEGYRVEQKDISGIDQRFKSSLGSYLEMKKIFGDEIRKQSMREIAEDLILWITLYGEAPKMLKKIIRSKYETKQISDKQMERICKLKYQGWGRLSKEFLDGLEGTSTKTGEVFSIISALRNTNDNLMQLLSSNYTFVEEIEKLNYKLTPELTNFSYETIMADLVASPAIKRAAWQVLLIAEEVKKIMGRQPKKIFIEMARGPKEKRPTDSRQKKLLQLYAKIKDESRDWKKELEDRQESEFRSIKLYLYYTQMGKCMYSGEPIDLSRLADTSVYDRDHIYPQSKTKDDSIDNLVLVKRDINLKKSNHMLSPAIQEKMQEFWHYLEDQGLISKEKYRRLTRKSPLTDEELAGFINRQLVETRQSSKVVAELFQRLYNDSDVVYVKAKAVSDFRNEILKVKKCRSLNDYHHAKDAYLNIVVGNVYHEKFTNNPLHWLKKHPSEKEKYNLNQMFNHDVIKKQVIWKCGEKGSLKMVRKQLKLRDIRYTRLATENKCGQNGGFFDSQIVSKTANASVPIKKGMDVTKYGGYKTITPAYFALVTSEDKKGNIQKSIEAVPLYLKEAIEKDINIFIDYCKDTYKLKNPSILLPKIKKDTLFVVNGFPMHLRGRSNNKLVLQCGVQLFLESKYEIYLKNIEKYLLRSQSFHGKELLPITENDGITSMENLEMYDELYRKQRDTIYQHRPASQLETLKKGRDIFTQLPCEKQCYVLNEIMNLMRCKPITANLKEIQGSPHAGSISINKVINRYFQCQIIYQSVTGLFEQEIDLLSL

[5] = system: T3, OMNI-114 (metagenomic, unknown); conditions: TXTL; PAM NRGGACNN
T3 sequence: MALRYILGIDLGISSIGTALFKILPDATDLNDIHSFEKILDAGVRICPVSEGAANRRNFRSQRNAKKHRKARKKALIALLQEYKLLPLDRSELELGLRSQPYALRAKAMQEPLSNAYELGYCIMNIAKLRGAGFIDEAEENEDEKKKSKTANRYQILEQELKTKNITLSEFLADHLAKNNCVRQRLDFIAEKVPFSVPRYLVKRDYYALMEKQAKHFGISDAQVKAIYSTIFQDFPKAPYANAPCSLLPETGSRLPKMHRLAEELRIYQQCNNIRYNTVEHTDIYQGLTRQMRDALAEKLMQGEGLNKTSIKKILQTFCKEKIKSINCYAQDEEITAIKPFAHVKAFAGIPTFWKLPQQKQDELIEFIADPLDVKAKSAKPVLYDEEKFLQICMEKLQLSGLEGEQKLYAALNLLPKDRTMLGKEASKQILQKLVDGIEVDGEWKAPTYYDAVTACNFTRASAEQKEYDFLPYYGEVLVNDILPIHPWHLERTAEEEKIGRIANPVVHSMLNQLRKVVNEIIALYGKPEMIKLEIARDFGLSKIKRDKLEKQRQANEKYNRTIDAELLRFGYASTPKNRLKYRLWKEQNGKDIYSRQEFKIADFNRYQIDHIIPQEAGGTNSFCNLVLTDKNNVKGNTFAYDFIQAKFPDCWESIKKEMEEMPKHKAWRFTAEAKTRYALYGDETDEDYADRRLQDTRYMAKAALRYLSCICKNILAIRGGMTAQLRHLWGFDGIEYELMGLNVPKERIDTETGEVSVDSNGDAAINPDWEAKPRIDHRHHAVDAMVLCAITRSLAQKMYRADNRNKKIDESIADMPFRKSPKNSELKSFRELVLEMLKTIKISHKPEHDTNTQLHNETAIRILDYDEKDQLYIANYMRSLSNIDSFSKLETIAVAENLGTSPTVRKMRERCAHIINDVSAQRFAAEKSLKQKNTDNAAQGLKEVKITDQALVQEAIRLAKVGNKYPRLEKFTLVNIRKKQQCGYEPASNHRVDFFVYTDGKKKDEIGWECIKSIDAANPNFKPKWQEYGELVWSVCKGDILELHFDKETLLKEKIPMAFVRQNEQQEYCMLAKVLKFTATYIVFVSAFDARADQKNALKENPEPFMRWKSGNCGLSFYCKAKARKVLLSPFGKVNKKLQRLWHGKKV

[6] = system: T4, OMNI-116 (metagenomic, unknown); conditions: TXTL; PAM NRGGACNN
T4 sequence: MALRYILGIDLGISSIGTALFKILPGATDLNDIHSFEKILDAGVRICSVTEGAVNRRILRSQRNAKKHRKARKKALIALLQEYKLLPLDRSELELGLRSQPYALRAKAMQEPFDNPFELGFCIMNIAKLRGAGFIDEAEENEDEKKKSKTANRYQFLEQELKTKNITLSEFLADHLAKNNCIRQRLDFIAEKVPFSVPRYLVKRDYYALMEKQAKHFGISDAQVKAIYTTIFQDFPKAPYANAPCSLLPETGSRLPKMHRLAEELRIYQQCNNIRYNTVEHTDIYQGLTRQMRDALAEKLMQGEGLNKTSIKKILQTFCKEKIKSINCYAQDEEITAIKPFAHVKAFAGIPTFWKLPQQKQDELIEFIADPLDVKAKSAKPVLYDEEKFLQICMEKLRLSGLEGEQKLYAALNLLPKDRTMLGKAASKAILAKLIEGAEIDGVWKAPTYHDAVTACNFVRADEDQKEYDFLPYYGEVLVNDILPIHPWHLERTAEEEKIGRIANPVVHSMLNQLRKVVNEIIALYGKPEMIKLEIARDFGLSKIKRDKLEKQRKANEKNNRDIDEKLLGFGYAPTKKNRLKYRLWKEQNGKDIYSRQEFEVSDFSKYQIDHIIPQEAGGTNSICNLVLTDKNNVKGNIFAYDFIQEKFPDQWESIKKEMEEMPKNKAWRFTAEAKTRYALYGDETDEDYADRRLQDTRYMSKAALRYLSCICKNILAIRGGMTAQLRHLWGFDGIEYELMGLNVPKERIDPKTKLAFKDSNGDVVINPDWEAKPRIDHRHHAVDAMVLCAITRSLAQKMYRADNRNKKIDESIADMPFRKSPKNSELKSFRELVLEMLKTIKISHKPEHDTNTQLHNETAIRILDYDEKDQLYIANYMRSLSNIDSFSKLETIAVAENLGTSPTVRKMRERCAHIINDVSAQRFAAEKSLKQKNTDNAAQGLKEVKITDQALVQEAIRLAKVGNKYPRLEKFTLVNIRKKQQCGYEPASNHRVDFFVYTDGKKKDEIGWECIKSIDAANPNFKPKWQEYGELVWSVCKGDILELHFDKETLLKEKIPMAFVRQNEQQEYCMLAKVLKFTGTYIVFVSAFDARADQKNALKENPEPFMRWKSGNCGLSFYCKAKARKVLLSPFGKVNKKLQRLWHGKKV

Sequence of OMNI-110 (metagenomic, unknown) (chain, as listed by the source): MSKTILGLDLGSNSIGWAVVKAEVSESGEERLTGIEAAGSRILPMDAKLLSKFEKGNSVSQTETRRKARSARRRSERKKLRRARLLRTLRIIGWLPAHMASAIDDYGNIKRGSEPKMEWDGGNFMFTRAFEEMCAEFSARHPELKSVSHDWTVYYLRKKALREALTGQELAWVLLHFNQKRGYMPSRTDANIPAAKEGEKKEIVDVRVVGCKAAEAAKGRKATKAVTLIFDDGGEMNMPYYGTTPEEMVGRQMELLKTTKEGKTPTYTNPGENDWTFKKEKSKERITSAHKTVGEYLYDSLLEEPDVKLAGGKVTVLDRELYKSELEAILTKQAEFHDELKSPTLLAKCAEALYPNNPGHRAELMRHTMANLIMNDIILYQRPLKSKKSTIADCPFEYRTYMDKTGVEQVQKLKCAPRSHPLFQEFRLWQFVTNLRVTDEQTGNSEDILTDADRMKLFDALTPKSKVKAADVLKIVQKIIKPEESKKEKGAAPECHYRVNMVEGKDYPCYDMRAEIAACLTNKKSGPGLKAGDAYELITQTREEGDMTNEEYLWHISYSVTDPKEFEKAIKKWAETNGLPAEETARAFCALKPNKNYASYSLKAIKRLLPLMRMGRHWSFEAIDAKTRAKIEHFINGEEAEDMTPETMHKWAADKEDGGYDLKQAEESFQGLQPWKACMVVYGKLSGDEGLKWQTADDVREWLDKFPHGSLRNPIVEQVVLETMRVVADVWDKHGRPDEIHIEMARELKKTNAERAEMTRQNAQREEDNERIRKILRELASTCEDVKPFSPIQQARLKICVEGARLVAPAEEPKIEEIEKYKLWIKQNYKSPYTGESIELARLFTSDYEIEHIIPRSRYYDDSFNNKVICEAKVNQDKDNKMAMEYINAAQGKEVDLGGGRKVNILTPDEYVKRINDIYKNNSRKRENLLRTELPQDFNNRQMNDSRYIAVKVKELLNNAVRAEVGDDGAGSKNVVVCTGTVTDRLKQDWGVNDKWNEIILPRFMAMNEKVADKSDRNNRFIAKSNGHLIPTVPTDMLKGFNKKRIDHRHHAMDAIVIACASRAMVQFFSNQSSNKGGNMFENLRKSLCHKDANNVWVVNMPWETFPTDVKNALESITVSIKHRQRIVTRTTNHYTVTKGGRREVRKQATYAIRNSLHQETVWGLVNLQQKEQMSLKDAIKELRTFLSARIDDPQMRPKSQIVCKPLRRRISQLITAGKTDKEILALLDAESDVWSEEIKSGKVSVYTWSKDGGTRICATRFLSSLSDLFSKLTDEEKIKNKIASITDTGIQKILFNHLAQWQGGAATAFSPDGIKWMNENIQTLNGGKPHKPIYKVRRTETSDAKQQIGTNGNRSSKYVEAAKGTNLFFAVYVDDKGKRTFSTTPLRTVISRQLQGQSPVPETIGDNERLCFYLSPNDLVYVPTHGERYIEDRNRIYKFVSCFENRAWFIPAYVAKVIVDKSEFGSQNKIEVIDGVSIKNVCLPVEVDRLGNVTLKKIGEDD
Sequence of OMNI-119 (metagenomic, unknown) (chain, as listed by the source): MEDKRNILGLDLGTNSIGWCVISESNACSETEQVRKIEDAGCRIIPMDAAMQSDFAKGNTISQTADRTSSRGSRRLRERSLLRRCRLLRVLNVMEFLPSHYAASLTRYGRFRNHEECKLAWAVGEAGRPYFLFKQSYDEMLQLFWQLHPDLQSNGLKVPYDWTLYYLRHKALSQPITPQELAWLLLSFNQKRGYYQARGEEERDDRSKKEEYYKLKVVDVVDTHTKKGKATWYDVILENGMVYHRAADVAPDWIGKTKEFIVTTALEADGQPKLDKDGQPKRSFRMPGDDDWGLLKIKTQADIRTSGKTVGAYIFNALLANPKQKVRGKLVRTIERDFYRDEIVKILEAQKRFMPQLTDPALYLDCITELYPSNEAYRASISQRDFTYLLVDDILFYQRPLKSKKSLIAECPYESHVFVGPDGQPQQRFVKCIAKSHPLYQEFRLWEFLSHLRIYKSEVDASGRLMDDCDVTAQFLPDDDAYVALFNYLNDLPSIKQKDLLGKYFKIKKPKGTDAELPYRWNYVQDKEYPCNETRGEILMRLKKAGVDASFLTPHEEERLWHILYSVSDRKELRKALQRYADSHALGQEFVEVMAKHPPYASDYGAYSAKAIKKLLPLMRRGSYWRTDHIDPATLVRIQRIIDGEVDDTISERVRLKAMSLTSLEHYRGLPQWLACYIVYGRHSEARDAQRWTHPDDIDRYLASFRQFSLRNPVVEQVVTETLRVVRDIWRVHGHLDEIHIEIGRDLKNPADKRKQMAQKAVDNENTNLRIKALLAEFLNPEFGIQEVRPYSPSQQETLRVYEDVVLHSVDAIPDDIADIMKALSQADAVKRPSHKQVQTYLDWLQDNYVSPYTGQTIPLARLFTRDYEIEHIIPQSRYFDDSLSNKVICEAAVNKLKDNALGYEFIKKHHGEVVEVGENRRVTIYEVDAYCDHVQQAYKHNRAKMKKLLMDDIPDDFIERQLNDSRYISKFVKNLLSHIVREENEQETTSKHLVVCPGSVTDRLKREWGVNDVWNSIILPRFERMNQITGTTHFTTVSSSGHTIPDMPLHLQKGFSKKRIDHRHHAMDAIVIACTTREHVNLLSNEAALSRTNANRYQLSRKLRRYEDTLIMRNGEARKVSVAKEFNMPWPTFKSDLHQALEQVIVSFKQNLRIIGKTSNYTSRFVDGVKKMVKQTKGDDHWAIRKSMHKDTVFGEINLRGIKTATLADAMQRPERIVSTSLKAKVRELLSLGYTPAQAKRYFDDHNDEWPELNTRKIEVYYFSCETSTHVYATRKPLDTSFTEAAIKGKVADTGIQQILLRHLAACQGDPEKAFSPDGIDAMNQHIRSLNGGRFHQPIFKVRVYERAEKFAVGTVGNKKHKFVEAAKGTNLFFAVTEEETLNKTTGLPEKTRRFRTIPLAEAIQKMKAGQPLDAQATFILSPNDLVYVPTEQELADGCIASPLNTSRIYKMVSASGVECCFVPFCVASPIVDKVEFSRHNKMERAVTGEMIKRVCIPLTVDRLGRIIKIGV

GGAAGAGCAGAGCCUUGGUCUCGUUGUGAUUCGCUUCCGAAAGCAAGCGAAUCACAAUAAGGAUUAUUCCGUUGUGAAAACAUUUAAGUCGGGCCUCCUUCGGUUGGCUCGGCUUUUUUU / GGAAGAGCAGAGCCTTGGTCTCNNNNNNNN / NNNNNNNNGAGACCAAGGCTCTGCTCTTCC [T2 sgRNA 18 V1 ; T2 protospacer + 8N PAM library (pbPOS T2)]
activity (1-depletion score) [1]: 0.95

GGAAGAGCAGAGCCUUGGUCUCGUUGUGAUUUGCUGAGGAAACUAGCAAAUCACAAUAAGGAUUAUUCCGUUGUGAACACAUUAGGUCCCAACCCAUCGUCCUUUAACGGUGGGUUAUUUUUU / GGAAGAGCAGAGCCTTGGTCTCNNNNNNNN / NNNNNNNNGAGACCAAGGCTCTGCTCTTCC [T2 sgRNA 22 V1 ; T2 protospacer + 8N PAM library (pbPOS T2)]
activity (1-depletion score) [2]: 0.97

GGAAGAGCAGAGCCUUGGUCUCGUUUGAGAGCCUUGUUAGAAAUAACAAGGCGAGUGCAAAUAAGGUUUAACCGAAUUCACCGUUUAUGGACCGCAUUGUGCGGAUUUUAAAAAAGACUUUCAAAGUCUUUUUU / GGAAGAGCAGAGCCTTGGTCTCNNNNNNNN / NNNNNNNNGAGACCAAGGCTCTGCTCTTCC [T2 sgRNA 23 V1 ; T2 protospacer + 8N PAM library (pbPOS T2)]
activity (1-depletion score) [3]: 0.95

GGAAGAGCAGAGCCUUGGUCUCGUUUGAGAGUAGUGUAAGAAAUUACACUACAAGUUCAAAUAAAAAUUUAUUCUAAUCGCUCUUCGGAGCCUCCACAGGAGUGGAUUUAAGACUUGCUUCGGCGAGUCUUUUUU / GGAAGAGCAGAGCCTTGGTCTCNNNNNNNN / NNNNNNNNGAGACCAAGGCTCTGCTCTTCC [T2 sgRNA 17 V1 ; T2 protospacer + 8N PAM library (pbPOS T2)]
activity (1-depletion score) [4]: 0.94

GGAAGAGCAGAGCCUUGGUCUCGUUUUACUUGCCUGUCGAAAGAUAGGCAAUAAAACAAAUAUAAUUUCUUUUGAAAUUAUAUGUAAAAUGUUUAAAGCCCUCCUUUUCAGGGGGGCUUUUUU / GGAAGAGCAGAGCCTTGGTCTCNNNNNNNN / NNNNNNNNGAGACCAAGGCTCTGCTCTTCC [T2 sgRNA 20 V1 ; T2 protospacer + 8N PAM library (pbPOS T2)]
activity (1-depletion score) [5]: 0.96
activity (1-depletion score) [6]: 0.96
